In article PMC5700061 (Nature Communications, 2017):

T1: furin-resistant mouse proNGF (mouse, UniProt P01139 122-241)
T1 chain: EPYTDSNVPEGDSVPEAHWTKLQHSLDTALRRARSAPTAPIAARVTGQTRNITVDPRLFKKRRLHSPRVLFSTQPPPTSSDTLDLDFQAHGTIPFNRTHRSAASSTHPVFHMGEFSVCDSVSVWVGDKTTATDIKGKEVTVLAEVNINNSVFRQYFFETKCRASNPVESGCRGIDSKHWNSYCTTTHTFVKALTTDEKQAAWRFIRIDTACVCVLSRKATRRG


Columns and labels:
Conditions in all cases: both partners purified
[1] = target: T2, Mouse s-sortilin A464E, native glycans (mouse); test: SPR; MX96 (IBIS); NGF, proNGF and proBDNF amine-coupled to a P-COOH SensEye sensor, s-sortilin flowed over as analyte; 25 mM MES pH 5.0, 150 mM NaCl, 0.005% Tween 20, 25 °C; equilibrium binding, 1:1 Langmuir model
T2 construct: Sortilin (Sort1), mouse, luminal segment, residues 1-722 with A464E; secreted with a cystatin signal peptide; Same limits as Dm1; also called A464E s-sortilin; source: HEK293-E, secreted, purified (Ni-NTA, SEC)

[2] = target: T1, furin-resistant mouse proNGF; test: SPR; equilibrium binding, IBIS MX96; NGF, proNGF and proBDNF amine-coupled, s-sortilin as analyte; 25 mM HEPES pH 7.4, 150 mM NaCl, 0.005% Tween 20, 25 °C; 1:1 Langmuir model
[3] = target: T3, Nerve Growth Factor (NGF), mouse (mouse, UniProt P01139 122-241); test: as above
T3 construct: Mouse NGF purified from submaxillary glands; the mature neurotrophin as against proNGF; also called Mouse NGF; source: bought: Biorad (purified from submaxillary glands)

[4] = target: T1, furin-resistant mouse proNGF; test: SPR; equilibrium binding, IBIS MX96; NGF, proNGF and proBDNF amine-coupled, s-sortilin as analyte; 25 mM MES pH 5.0, 150 mM NaCl, 0.005% Tween 20, 25 °C; 1:1 Langmuir model
[5] = target: T3, Nerve Growth Factor (NGF), mouse; test: as above

Binder	Kd [1]	Kd [2]	Kd [3]	fold reduction of binding at pH 5.0 against pH 7.4 [4]	fold reduction of binding at pH 5.0 against pH 7.4 [5]
Furin-resistant mouse proNGF (ligand) EPYTDSNVPEGDSVPEAHWTKLQHSLDTALAAARSAPTAPIAARVTGQTRNITVDPRLFKKAALHSPRVLFSTQPPPTSSDTLDLDFQAHGTIPFNRTHRSAASSTHPVFHMGEFSVCDSVSVWVGDKTTATDIKGKEVTVLAEVNINNSVFRQYFFETKCRASNPVESGCRGIDSKHWNSYCTTTHTFVKALTTDEKQAAWRFIRIDTACVCVLSRKATRRG	2280 ± 260 nM	–	–	–	–
s-sortilin A464E (dimerization interface mutant of the mouse sortilin luminal segment) (domain or fragment, native glycans (HEK293-E)) RRGAPAEDQDCGRLPDFIAKLTNNTHQHVFDDLSGSVSLSWVGDSTGVILVLTTFQVPLVIVSFGQSKLYRSEDYGKNFKDITNLINNTFIRTEFGMAIGPENSGKVILTAEVSGGSRGGRVFRSSDFAKNFVQTDLPFHPLTQMMYSPQNSDYLLALSTENGLWVSKNFGEKWEEIHKAVCLAKWGPNNIIFFTTHVNGSCKADLGALELWRTSDLGKTFKTIGVKIYSFGLGGRFLFASVMADKDTTRRIHVSTDQGDTWSMAQLPSVGQEQFYSILAANEDMVFMHVDEPGDTGFGTIFTSDDRGIVYSKSLDRHLYTTTGGETDFTNVTSLRGVYITSTLSEDNSIQSMITFDQGGRWEHLRKPENSKCDATAKNKNECSLHIHASYSISQKLNVPMAPLSEPNAVGIVIAHGSVGDEISVMVPDVYISDDGGYSWAKMLEGPHYYTILDSGGIIVAIEHSNRPINVIKFSTDEGQCWQSYVFTQEPIYFTGLASEPGARSMNISIWGFTESFITRQWVSYTVDFKDILERNCEEDDYTTWLAHSTDPGDYKDGCILGYKEQFLRLRKSSVCQNGRDYVVAKQPSVCPCSLEDFLCDFGYFRPENASECVEQPELKGHELEFCLYGKEEHLTTNGYRKIPGDKCQGGMNPAREVKDLKKKCTSNFLNPTKQNSKSN	–	810 nM	320 nM	2 fold	2 fold
